The values below come from paper PMC8136776.

One data set deals with mPOLγA A449T;mPOLγB (Mus musculus;Mus musculus, UniProt P54099;Q9QZM2 26-1218;17-459, A450T|). The data set is described as follows: EMSA. (In general: A gel shift assay detects complexes by their altered migration in electrophoresis.)
A further data set addresses T1, mPOLγA A449T (Mus musculus, UniProt P54099 26-1218, A450T).
T1 sequence: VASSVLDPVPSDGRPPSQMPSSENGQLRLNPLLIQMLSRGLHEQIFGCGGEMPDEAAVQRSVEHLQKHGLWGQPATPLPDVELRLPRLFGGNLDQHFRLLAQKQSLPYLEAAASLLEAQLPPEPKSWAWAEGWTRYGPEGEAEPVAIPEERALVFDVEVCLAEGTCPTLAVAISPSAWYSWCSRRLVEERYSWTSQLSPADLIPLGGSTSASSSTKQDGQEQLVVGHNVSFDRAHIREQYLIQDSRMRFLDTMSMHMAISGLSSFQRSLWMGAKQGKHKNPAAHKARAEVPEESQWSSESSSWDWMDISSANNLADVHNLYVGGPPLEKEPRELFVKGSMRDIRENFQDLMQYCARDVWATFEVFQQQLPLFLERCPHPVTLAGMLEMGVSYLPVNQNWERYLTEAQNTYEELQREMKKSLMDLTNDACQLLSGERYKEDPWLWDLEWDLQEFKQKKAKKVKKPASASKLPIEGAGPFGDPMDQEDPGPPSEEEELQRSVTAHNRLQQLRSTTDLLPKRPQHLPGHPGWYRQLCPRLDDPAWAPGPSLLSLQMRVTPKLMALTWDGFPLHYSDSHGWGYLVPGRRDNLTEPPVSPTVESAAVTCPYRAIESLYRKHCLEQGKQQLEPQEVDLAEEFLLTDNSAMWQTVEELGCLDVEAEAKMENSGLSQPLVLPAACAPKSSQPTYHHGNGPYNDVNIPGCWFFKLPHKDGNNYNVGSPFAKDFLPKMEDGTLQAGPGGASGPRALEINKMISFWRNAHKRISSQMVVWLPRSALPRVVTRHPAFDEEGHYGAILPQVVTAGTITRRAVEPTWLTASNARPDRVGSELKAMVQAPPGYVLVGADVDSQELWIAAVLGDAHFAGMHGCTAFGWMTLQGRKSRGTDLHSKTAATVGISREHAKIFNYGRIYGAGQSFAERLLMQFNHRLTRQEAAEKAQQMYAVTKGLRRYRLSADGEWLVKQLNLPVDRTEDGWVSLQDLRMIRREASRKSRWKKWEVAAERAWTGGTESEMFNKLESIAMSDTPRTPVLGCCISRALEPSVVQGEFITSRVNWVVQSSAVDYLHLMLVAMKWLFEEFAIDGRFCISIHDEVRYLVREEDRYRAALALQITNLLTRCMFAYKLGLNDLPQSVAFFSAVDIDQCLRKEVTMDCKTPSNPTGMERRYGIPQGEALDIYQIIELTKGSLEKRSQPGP
Description: EMSA.

mPOLγA A449T;mPOLγB, sequence (Q9QZM2 17-459, stated change not applied, one chain of several): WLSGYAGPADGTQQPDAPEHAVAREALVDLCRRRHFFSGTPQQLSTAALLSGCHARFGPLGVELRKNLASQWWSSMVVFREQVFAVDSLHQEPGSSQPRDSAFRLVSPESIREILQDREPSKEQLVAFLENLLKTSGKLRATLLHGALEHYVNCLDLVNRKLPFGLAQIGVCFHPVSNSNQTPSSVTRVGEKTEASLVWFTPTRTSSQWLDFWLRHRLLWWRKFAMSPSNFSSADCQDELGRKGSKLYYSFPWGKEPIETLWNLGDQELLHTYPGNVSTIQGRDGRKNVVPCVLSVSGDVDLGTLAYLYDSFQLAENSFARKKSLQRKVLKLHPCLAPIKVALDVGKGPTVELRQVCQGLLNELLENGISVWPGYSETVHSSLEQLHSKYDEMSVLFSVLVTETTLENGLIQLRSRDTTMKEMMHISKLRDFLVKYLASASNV

B1: 36/21-nt primer-template (mixed)
DNA 1: TTTTTTTTTTATCCGGGCTCCTCTAGACTCGACCGC
DNA 2: GCGGTCGAGTCTAGAGGAGCC
Regarding B1, the binding signal is 1.75 fold lower binding than WT holoenzyme with mPOLγA A449T;mPOLγB and ~3.4 fold lower binding than WT with mPOLγA A449T.
